First the molecules themselves.
B1: recombinant Psb27 (natural protein, T. elongatus, UniProt Q8DG60 22-134, looked up)
chain: CANVPTGLTGNFREDTLALISSLREAIALPENDPNKKAAQAEARKKLNDFFALYRRDDSLRSLSSFMTMQTALNSLAGHYSSYPNRPLPEKLKARLEQEFKQVELALDREAKS
notes: by the printed primers the natural stretch begins ANVPT and ends REAKS; No lipid modification, as the N-terminal cysteine is missing; the His tag is inferred; source: E. coli Overexpress C43, purified (IMAC, ResourceS ion exchange)
B2: Psb27 in the monomeric Psb27-PSII intermediate complex (natural protein, T. elongatus (endogenous), UniProt Q8DG60 22-134, looked up)
chain: B1 chain
modifications: N-terminal lipid modification
notes: Psb27 of T. elongatus (tll2462), as it stands in the isolated Psb27-PSII complex; source: endogenous, Psb27-PSII complex isolated from wild-type T. elongatus
B3: Im7-tagged C-terminal lumenal domain of D2 (residues 294-352) (domain or fragment)
chain: not shown
notes: D2 (PsbD) of photosystem II, C-terminus, residues 294-352; source: cell-free expression (RTS100 system), purified on the chip
B4: Im7-tagged lumenal domain of CP43 (residues 293-424) (domain or fragment)
chain: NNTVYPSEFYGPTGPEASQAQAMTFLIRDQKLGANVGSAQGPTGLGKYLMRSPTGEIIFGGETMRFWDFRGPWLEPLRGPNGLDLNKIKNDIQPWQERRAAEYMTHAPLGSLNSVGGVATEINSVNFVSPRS
modifications: Im7 fusion carrier omitted. Printed 293-424 taken as PDB 3ARC numbering, which is UniProt +12: printed K381, K339 and D383 then correspond to entry K369, K327 and D371, and the range spans the …
B5: Im7-tagged mature D1 C-terminus (mD1, residues 295-344) (domain or fragment)
chain: not shown
notes: D1 (PsbA) of photosystem II, mature C-terminus, residues 295-344; source: cell-free expression (RTS100 system), purified on the chip

What all share (conditions): both partners purified
Assay [1] concerns the target T1, Im7-tagged lumenal domain of CP47 (residues 271-446) (UniProt Q8DIQ1 271-446).
T1 construct: CP47 (PsbB) of photosystem II, lumenal domain, residues 271-446; also called CP47 domain; source: cell-free expression (RTS100 system), purified on the chip
The experiment in a line: SPR; Biacore 3000, CM5 chip; Im7 fusion proteins captured on covalently bound DNase E7; Psb27 injected from 50 μM to 100 nM for 60 s in MBS-EP (20 mM MES, 150 mM NaCl, 3 mM EDTA, 0.05% Surfactant P20, pH 6.5), 30 μl/min, 298 K; steady-state responses fitted to a one-site binding isotherm. (In general: Surface plasmon resonance follows binding to a sensor surface in real time, without labels.)

Assay [2] concerns the target T2, CP43 in the monomeric Psb27-PSII intermediate complex (T. elongatus (endogenous), UniProt Q8DIF8 1-461).
T2 construct: CP43 (PsbC) of photosystem II of T. elongatus; source: endogenous, Psb27-PSII complex isolated from wild-type T. elongatus
The experiment in a line: cross-linking; isolated monomeric Psb27-PSII complex without PsbO, PsbU and PsbV (2.4 μM) with a 1:1 mixture of BS3-H12/D12 (5 mM), 30 min on ice, 20 mM MES/NaOH, 10 mM CaCl2, 0.03% dodecyl-β-D-maltoside, pH 6.5; trypsin, LC-ESI-MS/MS, StavroX; found in light and heavy form.

Assay [3] concerns the target B1. Briefly: SPR; Biacore 3000, CM5 chip; Im7 fusion proteins captured on covalently bound DNase E7; Psb27 injected from 50 μM to 100 nM for 60 s in MBS-EP (20 mM MES, 150 mM NaCl, 3 mM EDTA, 0.05% Surfactant P20, pH 6.5), 30 μl/min, 298 K; steady-state responses fitted to a one-site binding isotherm.

T1 sequence (Q8DIQ1 271-446): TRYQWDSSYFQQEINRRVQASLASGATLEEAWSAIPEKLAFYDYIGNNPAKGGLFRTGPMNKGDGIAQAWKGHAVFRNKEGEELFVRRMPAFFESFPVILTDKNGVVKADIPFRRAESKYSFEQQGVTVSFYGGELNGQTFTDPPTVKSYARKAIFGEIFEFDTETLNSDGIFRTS

For orientation: Kd means the concentration at which binding is half-saturated. B1 returned a Kd in assay [1] of about 100 µM.
Consider B2, for which the binding result in assay [2] is given as “binds”.
For the molecule B3, in assay [3], the Kd was about 100 µM.
Still for that read-out and setting: the result for B4 reads 21 µM; that for B5, 34 µM.

(Values after PMC4758025, “Critical Assessment of Protein Cross-Linking and Molecular Docking: An Updated Model for the Interaction Between Photosystem II and Psb27” (Frontiers in Plant Science, 2016).)
